For the assay, the target named is mouse GLP-1R (mouse) (UniProt O35659). In words: cell-based or functional assay.
Sequence of mouse GLP-1R (mouse) (O35659 22-463): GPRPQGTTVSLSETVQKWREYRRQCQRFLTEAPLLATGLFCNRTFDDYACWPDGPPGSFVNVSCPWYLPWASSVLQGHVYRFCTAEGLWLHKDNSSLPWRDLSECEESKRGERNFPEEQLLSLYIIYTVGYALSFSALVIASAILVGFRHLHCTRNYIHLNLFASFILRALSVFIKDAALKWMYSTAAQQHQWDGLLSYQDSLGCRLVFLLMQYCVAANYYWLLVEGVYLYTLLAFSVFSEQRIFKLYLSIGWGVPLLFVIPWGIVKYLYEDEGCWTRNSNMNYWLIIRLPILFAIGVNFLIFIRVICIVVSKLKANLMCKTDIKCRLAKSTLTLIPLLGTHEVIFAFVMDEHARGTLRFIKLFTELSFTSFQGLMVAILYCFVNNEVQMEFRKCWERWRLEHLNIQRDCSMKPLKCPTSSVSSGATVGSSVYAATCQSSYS

Turning to “Human GLP-1 (7-36) (from UniProt P01275 21-180) (ligand)”, the cAMP accumulation EC50 was 3 pM and the β-arrestin-2 recruitment stood at 99%.
Liraglutide (peptide): the mGLP-1R cAMP (-alb) % Emax turned out to be 92% and the mGLP-1R β-arrestin-2 % Emax stood at 80.7%.

The values above are taken from patent publication US20240366728A1, “Treatment of Diabetes Mellitus” (Carmot Therapeutics Inc., priority 2023, published 2024).
